Data taken from patent US20210147829A1, “VARIANT NUCLEOTIDE LIBRARY” (The University of Manchester, priority 2017, published 2021).
Residue numbers refer to the chain shown, from its start. Names and notes keep the numbering of the source.

B1: WT: Wild type monoamine oxidase-N (MAO-N, A. niger), an amine-oxidising biocatalyst (protein, UniProt P46882 1-495, looked up)
Monoamine oxidase N: MTSRDGYQWTPETGLTQGVPSLGVISPPTNIEDTDKDGPWDVIVIGGGYCGLTATRDLTVAGFKTLLLEARDRIGGRSWSSNIDGYPYEMGGTWVHWHQSHVWREITRYKMHNALSPSFNFSRGVNHFQLRTNPTTSTYMTHEAEDELLRSALHKFTNVDGTNGRTVLPFPHDMFYVPEFRKYDEMSYSERIDQIRDELSLNERSSLEAFILLCSGGTLENSSFGEFLHWWAMSGYTYQGCMDCLISYKFKDGQSAFARRFWEEAAGTGRLGYVFGCPVRSVVNERDAARVTARDGREFAAKRLVCTIPLNVLSTIQFSPALSTERISAMQAGHVNMCTKVHAEVDNKDMRSWTGIAYPFNKLCYAIGDGTTPAGNTHLVCFGTDANHIQPDEDVRETLKAVGQLAPGTFGVKRLVFHNWVKDEFAKGAWFFSRPGMVSECLQGLREKHRGVVFANSDWALGWRSFIDGAIEEGTRAARVVLEELGTKREVKARL
B2: D1 N336S: MAO-N variant D1 with mutation N336S, Reference {Alexeeva 2002} (protein, UniProt P46882 1-495, looked up, variant N336S)
Monoamine oxidase N: B1 Monoamine oxidase N with N336S

Assays:
[1] = Liquid phase kinetic assay of purified MAO-N variants, substrate N-amylamine; assay type: biochemical
Description: (§1) Selected variants were overexpressed by BL21 (DE3) E. coli strain in 700 mL of LB medium with 100 μg mL^−1 ampicillin. 0.5 mM of IPTG was introduced to the culture when OD600 reached 0.6 and the culture was incubated at 25° C., 180 rpm. Cells were harvested after 16-20 hours and purified using 5 mL Histrap FF crude column (GE Healthcare) with an AKTA Explorer 100 protein purification system as described (55).
(§2) A range of amine stock solutions including α-methylbenzylamine, N-amylamine, butylamine, benzylamine or cyclohexylamine (all from Sigma) were prepared in 0.1 M potassium phosphate pH 7.7. The final concentration range of the substrate was between 0.5 mM to 100 mM. A colourimetric assay solution was made up by dissolving Pyrogallol red (0.3 mM final concentration) in 0.1 M potassium phosphate, pH 7.7. The assay was conducted by combining 35 μL of substrate solution, 50 μL of Pyrogallol red solution and 5 μL of horseradish peroxidase (1 mg mL^−1) in a flat bottom 96-well plate and started by adding 110 μL of purified MAO-N. Assay progress was monitored at 550 nm at 25° C. in a Molecular Devices Spectramex M2 plate reader. The data were analysed using Prism7 (GraphPad) which was also used to calculate kinetic parameters such as kcat, km and Vmax.

[2] = Liquid phase kinetic assay of purified MAO-N variants, substrate butylamine; assay type: biochemical
Description: as §1, §2

[3] = Liquid phase kinetic assay of purified MAO-N variants, substrate benzylamine; assay type: biochemical
Description: as §1, §2

[4] = MAO-N variant activity to native primary amine substrates (taken together); assay type: biochemical; details: range over native substrates
Description: as §1, §2

[5] = cited from earlier work; for kcat, substrate AMBA: Table 3
[6] = Liquid phase kinetic assay of purified MAO-N variants, substrate α-methylbenzylamine; assay type: biochemical; details: Table 4; kcat for α-methylbenzylamine
Description: as §1, §2

[7] = Table 4, α-methylbenzylamine, Reference {Alexeeva 2002}

Molecule	kcat, substrate AA ([1]; Table 3)	kcat N-amylamine (AA) ([1]; Table 5)	kcat, substrate BTA ([2]; Table 3)	kcat Butylamine (BTA) ([2]; Table 5)	kcat, substrate BZA ([3]; Table 3)	kcat Benzylamine (BZA) ([3]; Table 5)	kcat for several primary amine substrates ('wild type speed') [4]	kcat, substrate AMBA ([5]; Reference {Alexeeva 2002})	kcat [5, 7]	kcat towards α-MBA ([5]; wild type, literature value)	Improvement over wild type [6]	Km [5, 7]
B1	6.45 s⁻¹	6.45 s⁻¹	6.57 s⁻¹	6.57 s⁻¹	4.37 s⁻¹	4.37 s⁻¹	4.37 to 6.57 s⁻¹	0.00283 s⁻¹	0.00283 s⁻¹	0.00283 s⁻¹		
B2								0.133 s⁻¹	0.133 s⁻¹		40-fold	400 µM
